The supplement of paper PMC9170038

Tested on: MS2 coat protein
Test: apparent KD of MS2 coat protein; designed switch direction (-1 OFF switch, 1 ON switch): -1; higher = weaker reporter binding
Method in brief: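 RNA switches sharing common flanks were transcribed by stalled E. coli RNA polymerase on Illumina chips. A doubling series of SNAP-549-labelled MS2 coat protein, from 0.7 or 1.5 nM to 3 µM, was applied in Tris-HCl pH 7.5 buffer with KCl, MgCl2, BSA, DTT, tRNA and Tween-20. Each step lasted 0.8–1.5 h at the bottom of the series and 10–20 min at the top. Normalised cluster fluorescence was curve-fitted, giving apparent KD as the per-design median over clusters.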

[1] = Eterna round: R95, input ligand: FMN 200 uM
[2] = Eterna round: R95, input ligand: microRNA oligo, concentration not stated
[3] = Eterna round: R95, input ligand: none
[4] = input ligand: microRNA oligo, concentration not stated

Row | Sequence | apparent KD of MS2 coat protein [1] [nM] | apparent KD of MS2 coat protein [2] [nM] | apparent KD of MS2 coat protein [3] [nM] | apparent KD of MS2 coat protein (input ligand: FMN 200 uM) [nM] | apparent KD of MS2 coat protein [4] [nM] | apparent KD of MS2 coat protein (input ligand: none) [nM]
1 | UUAAGCUUUGAGAUCCUUAACAUGAGGAUCACCCAUGUUCGUCUUAUGAUGGUCUGAUCCCUGAGGAUCGGACCGUA [Mat - Sensor v3 - turn-off var 1 - JL Mod - D4] (puzzle: Sensor v3, turn-off variant 1) | 180 | 11.2 | 219 |  |  | 
2 | AUUUUGUCAGGAUAUGAGUAGUAGGACGAAAGUGUUAUUAUUUAGAAGGGACAUGAGGAUCACCCAUGUUUUCC [Bring Us a Shrubbery-04] (puzzle: Exclusion 4) |  | 12 |  |  |  | 
3 | AAUGCGGACAAAGGAUAUUGCGGUGACCGGCUCGGCGUACCGAGCCUACAUGAGGAUCACCCAUGUAAGAAGGUUGUCGCUAAA [Mat - Exclusion NG 2 - Mod of JL - D74] (Eterna round: R96, puzzle: Exclusion NG 2) |  |  |  | 43.1 | 13.8 | 17.6
4 | CCUGUGUAAGGAUAUGACAAUGGUAUCUUCGGAUACCAUUGUCAGAAGGUACAUGAGGAUCACCCAUGUAACAC [Ex4-3: 13] (puzzle: Exclusion 4) |  | 14.8 |  |  |  | 
5 | AAGAAACAUGAGGAUCACCCAUGUGAGGAUAUGUAAAAGAAAAUAAAAUAAAGAAGAAACAGAAGGCACAAAGG [Mat - Mod of Hog D20] (puzzle: Exclusion 1) | 53.4 | 43.4 | 43 |  |  | 
6 | AGUAGUAGUAUCCGUUCUUACAUGAGGAUCACCCAUGUUUCUUGACGUGCACGCGAUGCUCGUCAGACUACCAGAUG [salish99_TOv1_r3_055] (puzzle: Sensor v3, turn-off variant 1) | 68.5 | 88.4 | 91.5 |  |  | 
7 | AUUAUAAAUGUAGGAUAUCUGCACGUUUAGUGCAGAGAAGGACAUGAGGAUCACCCAUGUAGAUCAAUAAUAAUUAAUUUAAUU [ENG1/5-B2] (Eterna round: R96, puzzle: Exclusion NG 1) |  |  |  | 146 | 29.1 | 33.7
8 | UUUUAAAAGCUGAGAUCCUACAUGAGGAUCACCCAUGUGGUCCGGAAAAUUUUGUCACCGGAUUUUGCUCGUCUUGU [salish99_S_TOV1_R5_103] (Eterna round: R97, puzzle: Sensor, turn-off variant 1) |  |  |  | 102 |  | 114
9 | UUGUUGUAUGUAGGAUAUGCGUAUUAUUAUUAUGCAGAAGGACAUGAGGAUCACCCAUGUAUAUUAUUAUUAUAUAUUAUAUAU [Title] (Eterna round: R96, puzzle: Exclusion NG 1) |  |  |  |  | 22 | 
10 | AGCGCCAUGCUCGUCUUACACAUGAGGAUCACCCAUGUUGGGUCUCAGAUGCGGUAAUAGCCCGUUGAAUCUAGUGG [Eternabot (L1) Solution 38] (Eterna round: R97, puzzle: Sensor, turn-off variant 1) |  |  |  | 182 |  | 191
11 | UGAAUGUGAGGAUAUGGUGAGUAGUGCCAGAGCGCUGCUCACCAGAAGGCACAUGAGGAUCACCCAUGUACUUG [Mat - Exclusion 4 - Mod of JL - D18] (puzzle: Exclusion 4) |  | 47.8 |  |  |  | 
12 | UCCCGAUACUAGGAUAUGAGUUCACAGGAACGAUCAGAAGGAGUUACAUGAGGAUCACCCAUGUGGGUGUAUUG [Eternabot (L1) Solution 37] (Eterna round: R97, puzzle: Exclusion 6) |  |  |  | 120 |  | 237
13 | AUUAUUUAAGUCAGGAUAUCGUAUUUAUUUAAAUACGAGAAGGGACAUGAGGAUCACCCAUGUAAUAAAUUUUU [JMFs Solution 3] (puzzle: Brourd's mod of Exclusion 4) |  | 17.2 |  |  |  | 
14 | GCAUUGAGUGUGAGGAUAUGCUGGUCAUAAGAUCAGCAGAAGGCACAUGAGGAUCACCCAUGUGAAAACAAUGC [Mat - Exclusion 4 - JL Mod - D66] (puzzle: Brourd's mod of Exclusion 4) | 93.1 | 14.7 | 19.2 |  |  | 
15 | GGAUUUUCUGAGGAUAUUGCAUCACCCGAUUUAUAAGAAGGCAGAACAUGAGGAUCACCCAUGUGGGUCUCUAG [Bingo-Bango-26] (Eterna round: R97, puzzle: Exclusion 6) |  |  |  | 30.6 |  | 24.5
16 | CAGUACUGAGGAUAUACAUGAGGAUCACCCAUGUGUUCCAGCUAGGAGACUAGCAAGUGUAGAAGGCAGUACUG [jl-ex3-4.01 salish99 mod] (Eterna round: R97, puzzle: Exclusion 3) |  |  |  | 293 |  | 434
17 | AAGAAACAUGAGGAUCACCCAUGUGAGGAUAUGAAAAAGAAAAUAAAAUAAAUAAUAAUCAGAAGGCACAAAGG [Mat - Mod of Hog D6] (puzzle: Exclusion 1) | 43.1 | 44.4 | 37.3 |  |  | 
18 | GCACGAAGUGUAGGAUAUCUGUGCGAUUAGCUCAGAGAAGGACACAUGAGGAUCACCCAUGUGUUCCGCGGAAGCAAUACGUGC [Eli exng1 - 057] (Eterna round: R96, puzzle: Exclusion NG 1) |  |  |  | 10.7 | 9.73 | 13.3
19 | UUUUGUUUUUUAUUUUUUAACAUGAGGAUCACCCAUGUAACGAGCAGAUCUUCAUGCAAGCUUUUUGCUCGUCUUAU [Sensor v3 - Turn-off variant 1 - 42] (puzzle: Sensor v3, turn-off variant 1) | 42.2 | 16.1 | 60.6 |  |  | 
20 | CUGUUUUUCGCAGGAUAUGCUCCUCCAUUAUUUGCAGAAGGGCGUUGAACAUGAGGAUCACCCAUGUAUGGUAAUGACUAUUGC [JR_ExcNG1_Sub067] (Eterna round: R96, puzzle: Exclusion NG 1) |  |  |  | 23.5 | 14.7 | 22.4
21 | UUUUACAGAGGAUAUGCGAAUAAAUAAAACUUUUUUUUUUAACAUGAGGAUCACCCAUGUAGAAGGCUGAUUUU [Ex2 #25] (Eterna round: R97, puzzle: Exclusion 2) |  |  |  | 40 |  | 48.4
22 | GUUGUUGCGCAGGAUAUCCAGCGACUUGUCGAAGGAGAAGGGCGCACAUGAGGAUCACCCAUGUGCCUCUGUAA [EX6 B.20] (Eterna round: R97, puzzle: Exclusion 6) |  |  |  | 43 |  | 18.6
23 | GCAGCAUAGUGUAAUAACACAAUACAUGAGGAUCACCCAUGUGAGGAUAUGGACUGGAUUACAGUCCAGAAGGCACAAAGCUGC [Zipper Style 2] (Eterna round: R96, puzzle: Exclusion NG 3) |  |  |  | 19.9 | 13.3 | 21.1
24 | UUUAUUAAUUAAUAUAAUAAGAUCACAUGAGGAUCACCCAUGUAGGAUAUCAGCUCGAUUAGAGCUGAGAAGGACAUAAUUAUA [ExNG3/1-B1] (Eterna round: R96, puzzle: Exclusion NG 3) |  |  |  |  | 29.2 | 
25 | UCACCUGGGUCAGGAUAUAAAGGGUCAGGAAGUUUAGAAGGGACUUAGGACAUGAGGAUCACCCAUGUUGAGAACUCGUUUGUA [Eternabot solution 25] (Eterna round: R96, puzzle: Exclusion NG 1) |  |  |  | 46.2 | 27.5 | 36.7
26 | UCCCGUCUAUGGAGAUUUUACAUGAGGAUCACCCAUGUUGGGACCGCUCUUUGCUUGUCUUCUCCUACUUCGUGUGU [mod-Gracier #4] (Eterna round: R97, puzzle: Sensor, turn-off variant 1) |  |  |  | 82.7 |  | 87.2
27 | AAAUAAGAAGGAUAUACAAAUUAAAAGGUCCUUAAGGCAAGACAUGAGGAUCACCCAUGUAGAAGGUCUGAAAA [Teati] (puzzle: Exclusion 2) | 39.5 | 23 | 22.6 |  |  | 
28 | GACCCAGAUGUAAGGAUAUCGAGCUGCGUCAGGUUCGAGAAGGUACAUGAGGAUCACCCAUGUGCAAGCACUCC [BmEX4 B.18] (Eterna round: R97, puzzle: Brourd's mod of Exclusion 4) |  |  |  | 32.8 |  | 17.4
29 | AUAAUGUCAGGAUAUCAGAAGUUUAACUUCGGUUAAACUUCUGAGAAGGGACAUGAGGAUCACCCAUGUGAUUA [E4/3-B1] (Eterna round: R97, puzzle: Exclusion 4) |  |  |  | 109 |  | 1330
30 | CUGUAACGAGCGUGAGCCUACAUGAGGAUCACCCAUGUGCUCGUCUUAUAACGUACUGUCACGUUAGUGAUAGUGCG [Sensor v3, turn-off variant 1 (MOD of Eli's v1-13 v.3)] (puzzle: Sensor v3, turn-off variant 1) | 115 | 297 | 104 |  |  | 
